Laboratory results reported in PMC8632965.

Tests used:
[1] = biological target: domain 1 of CD147 (human) (UniProt P35613); experiment: SPR; Biacore T200; CD147ECD peptides diluted in 10 mM sodium acetate pH 4.5 and immobilised on a CM5 chip; purified proteins injected as analytes at 10 µL/min; BSA signal subtracted
[2] = biological target: extracellular portion of CD147 (ECD), amino acids 22–205 (human) (UniProt P35613); experiment: as above

Kd [1]: 3530 nM | Kd [2]: 431 nM
Substance: extracellular portion of CD98 (212-630 of CD98hc) (domain or fragment)
